These results are taken from PMC3401385 (Cell Reports, 2012).

Broadly, the Kd is the free concentration of one partner at which half of the binding sites on the other are occupied at equilibrium, for simple one-to-one binding.

For one assay, the target named is T1, eIF2β K2K3 (Saccharomyces cerevisiae, UniProt P09064).
T1 chain: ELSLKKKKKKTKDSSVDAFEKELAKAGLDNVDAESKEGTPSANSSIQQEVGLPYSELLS
As to the kind of experiment: ITC. (ITC needs no label: the signal is the heat of the interaction.)

Assay [1] deals with human eIF5-CTD (carboxyl-terminal domain of eukaryotic initiation factor 5), wild type (human, UniProt P55010 225-407). As to the kind of experiment: ITC.
Chain of human eIF5-CTD (carboxyl-terminal domain of eukaryotic initiation factor 5), wild type (P55010 225-407): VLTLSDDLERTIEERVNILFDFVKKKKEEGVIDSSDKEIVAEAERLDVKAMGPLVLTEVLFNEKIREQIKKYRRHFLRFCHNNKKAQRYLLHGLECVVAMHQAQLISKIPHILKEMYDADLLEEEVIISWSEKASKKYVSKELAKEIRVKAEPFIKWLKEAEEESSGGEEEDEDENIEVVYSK
The next assay concerns the target T2, eIF2 ternary complex (Saccharomyces cerevisiae, UniProt P20459).
T2 chain 1: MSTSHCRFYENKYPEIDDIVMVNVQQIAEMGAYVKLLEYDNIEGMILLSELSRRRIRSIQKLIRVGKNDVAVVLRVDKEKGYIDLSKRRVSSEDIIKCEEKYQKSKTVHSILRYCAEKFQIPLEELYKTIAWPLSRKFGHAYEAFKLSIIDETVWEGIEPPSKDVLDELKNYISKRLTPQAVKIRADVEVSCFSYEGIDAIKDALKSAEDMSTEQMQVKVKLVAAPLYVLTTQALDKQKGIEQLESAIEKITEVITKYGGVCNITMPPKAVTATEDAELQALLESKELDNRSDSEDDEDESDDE
T2 chain 2: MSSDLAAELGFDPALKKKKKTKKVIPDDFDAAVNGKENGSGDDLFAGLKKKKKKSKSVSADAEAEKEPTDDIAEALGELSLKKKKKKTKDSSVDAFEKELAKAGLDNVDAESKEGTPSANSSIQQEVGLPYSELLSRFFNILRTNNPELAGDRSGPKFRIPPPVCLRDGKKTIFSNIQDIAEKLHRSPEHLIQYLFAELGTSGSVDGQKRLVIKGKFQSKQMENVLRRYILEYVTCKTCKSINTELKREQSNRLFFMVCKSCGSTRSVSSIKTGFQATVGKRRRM
T2 chain 3: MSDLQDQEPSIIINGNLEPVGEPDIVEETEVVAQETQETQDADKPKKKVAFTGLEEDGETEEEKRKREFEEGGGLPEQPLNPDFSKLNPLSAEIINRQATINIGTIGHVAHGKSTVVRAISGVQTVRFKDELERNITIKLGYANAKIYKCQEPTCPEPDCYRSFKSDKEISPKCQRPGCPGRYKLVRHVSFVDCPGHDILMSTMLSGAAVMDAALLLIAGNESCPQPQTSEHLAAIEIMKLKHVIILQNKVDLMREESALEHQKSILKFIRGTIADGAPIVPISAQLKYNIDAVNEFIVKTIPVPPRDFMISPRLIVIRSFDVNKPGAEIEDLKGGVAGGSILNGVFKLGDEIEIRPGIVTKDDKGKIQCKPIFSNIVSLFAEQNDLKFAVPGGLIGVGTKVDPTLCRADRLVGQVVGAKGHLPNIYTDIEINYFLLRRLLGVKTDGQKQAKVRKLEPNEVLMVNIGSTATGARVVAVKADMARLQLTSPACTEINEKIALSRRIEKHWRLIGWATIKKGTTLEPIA

B1: eIF5 CTD (protein)
chain: VNSELTQLDEYGEWILEQAGEDKENLPSDVELYKKAAELDVLNDPKIGCVLAQCLFDEDIVNEIAEHNAFFTKILVTPEYEKNFMGGIERFLGLEHKDLIPLLPKILVQLYNNDIISEEEIMRFGTKSSKKFVPKEVSKKVRRAAKPFITWLETAESDDDEEDDE
Molecule B1 had a Kd in the assay with eIF2β K2K3 of approximately 4 µM.

B2: eIF2β-K2K3 (eIF2β residues 53-135, with the K2 and K3 lysine boxes) (domain or fragment, UniProt P20042 53-135, looked up)
chain: DLEADEEDTRKKDASDDLDDLNFFNQKKKKKKTKKIFDIDEAEEGVKDLKIESDVQEPTEPEDDLDIMLGNKKKKKKNVKFPD
Consider B2, for which the dissociation constant Kd in assay [1] is approximately 4 µM.

B3: eIF5 (protein)
chain: MSINICRDNHDPFYRYKMPPIQAKVEGRGNGIKTAVLNVADISHALNRPAPYIVKYFGFELGAQTSISVDKDRYLVNGVHEPAKLQDVLDGFINKFVLCGSCKNPETEIIITKDNDLVRDCKACGKRTPMDLRHKLSSFILKNPPDSVSGSKKKKKAATASANVRGGGLSISDIAQGKSQNAPSDGTGSSTPQHHDEDEDELSRQIKAAASTLEDIEVKDDEWAVDMSEEAIRARAKELEVNSELTQLDEYGEWILEQAGEDKENLPSDVELYKKAAELDVLNDPKIGCVLAQCLFDEDIVNEIAEHNAFFTKILVTPEYEKNFMGGIERFLGLEHKDLIPLLPKILVQLYNNDIISEEEIMRFGTKSSKKFVPKEVSKKVRRAAKPFITWLETAESDDDEEDDE
For B3, the Kd with eIF2 ternary complex was 0.1 µM.
